In patent US7122187 (IDEC PHARMACEUTICALS, dated 2006):

T1: human gp39 (cell surface) (human, UniProt P29965 1-261)
T1 construct: whole, on cells; this was read as mgp39-CHO (membrane gp39); also called CD40 ligand; CD40L
T1 sequence (looked up): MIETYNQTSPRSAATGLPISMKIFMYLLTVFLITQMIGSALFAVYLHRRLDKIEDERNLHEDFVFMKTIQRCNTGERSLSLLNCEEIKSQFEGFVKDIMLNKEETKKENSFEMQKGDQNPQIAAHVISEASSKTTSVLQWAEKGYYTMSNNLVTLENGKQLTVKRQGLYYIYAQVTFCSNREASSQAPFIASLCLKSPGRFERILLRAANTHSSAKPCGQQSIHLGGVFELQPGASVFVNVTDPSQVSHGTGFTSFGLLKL


Molecular target: T1, human gp39 (cell surface)
Test: Scatchard analysis, 125I-labelled antibody competed with unlabelled antibody on gp39-CHO cells
Procedure: ^125I-labeled antibody was mixed and incubated with non-labeled antibody in a dilution series. Based on the total amount of bound antibody and the amount of free antibody, a Scatchard plot was generated from a […] graph. The total antibody concentration was based on a standard size of 75 kD for one active site.
The Kd was calculated by generating a "best fit" line. The inverse of the slope of the curve is the Kd. The correlation coefficient, r^2, was also computed.

Row | Kd | Binder
1 | 5.6 nM | humanized 24-31 (version 1) (antibody, V domains shown, also called h24-31; humanized Version 1) VH: EVQLQESGPGLVKPSETLSLTCTVSGDSITNGFWIWIRKPPGNKLEYMGYISYSGSTYYNPSLKSRISISRDTSKNQFSLKLSSVTAADTGVYYCACRSYGRTPYYFDFWGQGTTLTVSS VL: DIVMTQSPSFLSASVGDRVTITCKASQNVITAVAWYQQKPGKSPKLLIYSASNRYTGVPDRFSGSGSGTDFTLTISSLQPEDFADYFCQQYNSYPYTFGGGTKLEIK
2 | 8.51 nM | murine antibody 24-31 (antibody, mouse IgG1, V domains shown, Murine IgG1 from hybridoma; also called anti-gp39 24-31 mAb; murine 24-31) VH: EVQLQESGPSLVKPSQTLSLTCSVTGDSITNGFWIWIRKFPGNKLEYMGYISYSGSTYYNPSLKSRISITRDTSQNQFYLQLNSVTTEDTGTYYCACRSYGRTPYYFDFWGQGTTLTVSS VL: DIVMTQSQKFMSTSVGDRVSITCKASQNVITAVAWYQQKPGQSPKLLIYSASNRYTGVPDRFSGSGSGTDFTLTISNMQSEDLADYFCQQYNSYPYTFGGGTKLEIK
3 | 14 nM | humanized 24-31 (version 2) (antibody, V domains shown, It was expressed from N5KG1 with human kappa and gamma 1 constant regions; also called humanized Version 2; #2 VL with #1 VH) VH: EVQLQESGPGLVKPSETLSLTCTVSGDSITNGFWIWIRKPPGNKLEYMGYISYSGSTYYNPSLKSRISISRDTSKNQFSLKLSSVTAADTGVYYCACRSYGRTPYYFDFWGQGTTLTVSS VL: DIVMTQSPDSLAVSLGERATINCKASQNVITAVAWYQQKPGQSPKLLIYSASNRYTGVPDRFSGSGSGTDFTLTISSLQAEDVADYFCQQYNSYPYTFGGGTKLEIK
